Experimental findings from patent US20040265797A1 (CHIRON, published 2004) are described below.

As a reminder, the % Inhibition is the percentage by which the read-out fell short of the control.

The target of assay [1] is T1, Soluble recombinant human urokinase receptor (suPAR) (human, UniProt Q03405 23-299, limits assumed, biotinylated in the plate assays (sites not given)).
T1 construct: Only called a soluble truncated form of the urokinase receptor; also called soluble uPAR; biotinylated suPAR
T1 sequence (Q03405 23-299 limits assumed): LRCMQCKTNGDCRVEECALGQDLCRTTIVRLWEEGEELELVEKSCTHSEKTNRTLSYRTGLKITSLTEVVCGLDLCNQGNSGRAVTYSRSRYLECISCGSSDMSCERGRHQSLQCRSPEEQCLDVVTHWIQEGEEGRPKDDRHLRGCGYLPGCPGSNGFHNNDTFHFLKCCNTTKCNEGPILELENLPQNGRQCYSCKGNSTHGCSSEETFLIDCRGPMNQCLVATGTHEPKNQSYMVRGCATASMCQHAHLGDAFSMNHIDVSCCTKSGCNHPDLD
In words: competition with phage displaying peptide 25 for soluble uPAR. As to the method: (§1) The final anti-M13 conjugate dilution was 1:4000.
(§2) These concentrations were calculated based on the synthesis reactions.

The target in assay [2] is T1, Soluble recombinant human urokinase …. Nature of the assay: competition with phage displaying peptide 9 for soluble uPAR. As to the method: as §1, §2

Square brackets hold non-standard residues; d marks the D form. Ends that are not written are not given here. 1Nal = N[C@@H](Cc1cccc2ccccc12)C(=O)O; 2Nal = N[C@@H](Cc1ccc2ccccc2c1)C(=O)O; Nle = CCCC[C@H](N)C(=O)O; Abu = CC[C@H](N)C(=O)O

B1: Analog 45 (peptide)
peptide: AESTYHHLSLGY[Abu]YTLN-NH2
modifications: N-terminus assumed
SMILES: CC[C@H](NC(=O)[C@H](Cc1ccc(O)cc1)NC(=O)CNC(=O)[C@H](CC(C)C)NC(=O)[C@H](CO)NC(=O)[C@H](CC(C)C)NC(=O)[C@H](Cc1c[nH]cn1)NC(=O)[C@H](Cc1c[nH]cn1)NC(=O)[C@H](Cc1ccc(O)cc1)NC(=O)[C@@H](NC(=O)[C@H](CO)NC(=O)[C@H](CCC(=O)O)NC(=O)[C@H](C)N)[C@@H](C)O)C(=O)N[C@@H](Cc1ccc(O)cc1)C(=O)N[C@H](C(=O)N[C@@H](CC(C)C)C(=O)N[C@@H](CC(N)=O)C(N)=O)[C@@H](C)O
notes: T0004 prints Y there, as in peptide 25; Y is used
As for B1, in assay [1], the “% Inhibition at 2.5 uM” value came out at 31% and the “% Inhibition at 5 uM” value came out at 59%.

B2: Analog 55 (peptide)
peptide: AESTYHHLS[dL]GYMYTLN-NH2
modifications: N-terminus assumed
SMILES: CSCC[C@H](NC(=O)[C@H](Cc1ccc(O)cc1)NC(=O)CNC(=O)[C@@H](CC(C)C)NC(=O)[C@H](CO)NC(=O)[C@H](CC(C)C)NC(=O)[C@H](Cc1c[nH]cn1)NC(=O)[C@H](Cc1c[nH]cn1)NC(=O)[C@H](Cc1ccc(O)cc1)NC(=O)[C@@H](NC(=O)[C@H](CO)NC(=O)[C@H](CCC(=O)O)NC(=O)[C@H](C)N)[C@@H](C)O)C(=O)N[C@@H](Cc1ccc(O)cc1)C(=O)N[C@H](C(=O)N[C@@H](CC(C)C)C(=O)N[C@@H](CC(N)=O)C(N)=O)[C@@H](C)O
For B2, in assay [1], the “% Inhibition at 2.5 uM” value is 56% and the “% Inhibition at 5 uM” value was found to be 80%.

B3: Analog 36 (peptide)
peptide: AEST[2Nal]HHLSLGYMYTLN-NH2
modifications: N-terminus assumed
SMILES: CSCC[C@H](NC(=O)[C@H](Cc1ccc(O)cc1)NC(=O)CNC(=O)[C@H](CC(C)C)NC(=O)[C@H](CO)NC(=O)[C@H](CC(C)C)NC(=O)[C@H](Cc1c[nH]cn1)NC(=O)[C@H](Cc1c[nH]cn1)NC(=O)[C@H](Cc1ccc2ccccc2c1)NC(=O)[C@@H](NC(=O)[C@H](CO)NC(=O)[C@H](CCC(=O)O)NC(=O)[C@H](C)N)[C@@H](C)O)C(=O)N[C@@H](Cc1ccc(O)cc1)C(=O)N[C@H](C(=O)N[C@@H](CC(C)C)C(=O)N[C@@H](CC(N)=O)C(N)=O)[C@@H](C)O
As for B3, in assay [1], the “% Inhibition at 2.5 uM” value was found to be 61% and the “% Inhibition at 5 uM” value was determined as 78%.

B4: Analog 46 (peptide)
peptide: [dA]ESTYHHLSLGYMYTLN-NH2
modifications: N-terminus assumed
SMILES: CSCC[C@H](NC(=O)[C@H](Cc1ccc(O)cc1)NC(=O)CNC(=O)[C@H](CC(C)C)NC(=O)[C@H](CO)NC(=O)[C@H](CC(C)C)NC(=O)[C@H](Cc1c[nH]cn1)NC(=O)[C@H](Cc1c[nH]cn1)NC(=O)[C@H](Cc1ccc(O)cc1)NC(=O)[C@@H](NC(=O)[C@H](CO)NC(=O)[C@H](CCC(=O)O)NC(=O)[C@@H](C)N)[C@@H](C)O)C(=O)N[C@@H](Cc1ccc(O)cc1)C(=O)N[C@H](C(=O)N[C@@H](CC(C)C)C(=O)N[C@@H](CC(N)=O)C(N)=O)[C@@H](C)O
Consider B4, for which, in assay [1], the “% Inhibition at 2.5 uM” value was determined as 41% and the “% Inhibition at 5 uM” value turned out to be 57%.

B5: Analog 35 (peptide)
peptide: AEST[1Nal]HHLSLGYMYTLN-NH2
modifications: N-terminus assumed
SMILES: CSCC[C@H](NC(=O)[C@H](Cc1ccc(O)cc1)NC(=O)CNC(=O)[C@H](CC(C)C)NC(=O)[C@H](CO)NC(=O)[C@H](CC(C)C)NC(=O)[C@H](Cc1c[nH]cn1)NC(=O)[C@H](Cc1c[nH]cn1)NC(=O)[C@H](Cc1cccc2ccccc12)NC(=O)[C@@H](NC(=O)[C@H](CO)NC(=O)[C@H](CCC(=O)O)NC(=O)[C@H](C)N)[C@@H](C)O)C(=O)N[C@@H](Cc1ccc(O)cc1)C(=O)N[C@H](C(=O)N[C@@H](CC(C)C)C(=O)N[C@@H](CC(N)=O)C(N)=O)[C@@H](C)O
In the case of B5, in assay [1], the “% Inhibition at 2.5 uM” value turned out to be 70% and the “% Inhibition at 5 uM” value is 94%.

B6: Peptide 9 (synthetic peptide of clone 9) (peptide)
peptide: AEFFKLGPNGYVYLHSA-NH2
notes: also called analogs 62-64
As to B6, in assay [2], the “% Inhibition at 2.5 uM” value worked out at 59% and the “% Inhibition at 5 uM” value is 71%.

B7: Analog 83 (peptide)
peptide: A[dE]FFKLGPNGYVYLHSA-NH2
modifications: N-terminus assumed
SMILES: CC(C)C[C@H](NC(=O)[C@H](CCCCN)NC(=O)[C@H](Cc1ccccc1)NC(=O)[C@H](Cc1ccccc1)NC(=O)[C@@H](CCC(=O)O)NC(=O)[C@H](C)N)C(=O)NCC(=O)N1CCC[C@H]1C(=O)N[C@@H](CC(N)=O)C(=O)NCC(=O)N[C@@H](Cc1ccc(O)cc1)C(=O)N[C@H](C(=O)N[C@@H](Cc1ccc(O)cc1)C(=O)N[C@@H](CC(C)C)C(=O)N[C@@H](Cc1c[nH]cn1)C(=O)N[C@@H](CO)C(=O)N[C@@H](C)C(N)=O)C(C)C
Consider B7, for which, in assay [2], the “% Inhibition at 2.5 uM” value was 44% and the “% Inhibition at 5 uM” value is 59%.

B8: Analog 54 (peptide)
peptide: AESTYHHL[dS]LGYMYTLN-NH2
modifications: N-terminus assumed
SMILES: CSCC[C@H](NC(=O)[C@H](Cc1ccc(O)cc1)NC(=O)CNC(=O)[C@H](CC(C)C)NC(=O)[C@@H](CO)NC(=O)[C@H](CC(C)C)NC(=O)[C@H](Cc1c[nH]cn1)NC(=O)[C@H](Cc1c[nH]cn1)NC(=O)[C@H](Cc1ccc(O)cc1)NC(=O)[C@@H](NC(=O)[C@H](CO)NC(=O)[C@H](CCC(=O)O)NC(=O)[C@H](C)N)[C@@H](C)O)C(=O)N[C@@H](Cc1ccc(O)cc1)C(=O)N[C@H](C(=O)N[C@@H](CC(C)C)C(=O)N[C@@H](CC(N)=O)C(N)=O)[C@@H](C)O
With B8, in assay [1], the “% Inhibition at 2.5 uM” value worked out at 73% and the “% Inhibition at 5 uM” value came to 86%.

B9: Analog 89 (peptide)
peptide: AEFFKLGP[dN]GYVYLHSA-NH2
modifications: N-terminus assumed
SMILES: CC(C)C[C@H](NC(=O)[C@H](CCCCN)NC(=O)[C@H](Cc1ccccc1)NC(=O)[C@H](Cc1ccccc1)NC(=O)[C@H](CCC(=O)O)NC(=O)[C@H](C)N)C(=O)NCC(=O)N1CCC[C@H]1C(=O)N[C@H](CC(N)=O)C(=O)NCC(=O)N[C@@H](Cc1ccc(O)cc1)C(=O)N[C@H](C(=O)N[C@@H](Cc1ccc(O)cc1)C(=O)N[C@@H](CC(C)C)C(=O)N[C@@H](Cc1c[nH]cn1)C(=O)N[C@@H](CO)C(=O)N[C@@H](C)C(N)=O)C(C)C
Regarding B9, in assay [2], the “% Inhibition at 2.5 uM” value was determined as 15% and the “% Inhibition at 5 uM” value was determined as 13%.

B10: Analog 60 (peptide)
peptide: AESTYHHLSLGYMYT[dL]N-NH2
modifications: N-terminus assumed
SMILES: CSCC[C@H](NC(=O)[C@H](Cc1ccc(O)cc1)NC(=O)CNC(=O)[C@H](CC(C)C)NC(=O)[C@H](CO)NC(=O)[C@H](CC(C)C)NC(=O)[C@H](Cc1c[nH]cn1)NC(=O)[C@H](Cc1c[nH]cn1)NC(=O)[C@H](Cc1ccc(O)cc1)NC(=O)[C@@H](NC(=O)[C@H](CO)NC(=O)[C@H](CCC(=O)O)NC(=O)[C@H](C)N)[C@@H](C)O)C(=O)N[C@@H](Cc1ccc(O)cc1)C(=O)N[C@H](C(=O)N[C@H](CC(C)C)C(=O)N[C@@H](CC(N)=O)C(N)=O)[C@@H](C)O
With B10, in assay [1], the “% Inhibition at 2.5 uM” value came to 22% and the “% Inhibition at 5 uM” value came out at 75%.

B11: Analog 44 (peptide)
peptide: AESTYHHLSLGY[Nle]YTLN-NH2
modifications: N-terminus assumed
SMILES: CCCC[C@H](NC(=O)[C@H](Cc1ccc(O)cc1)NC(=O)CNC(=O)[C@H](CC(C)C)NC(=O)[C@H](CO)NC(=O)[C@H](CC(C)C)NC(=O)[C@H](Cc1c[nH]cn1)NC(=O)[C@H](Cc1c[nH]cn1)NC(=O)[C@H](Cc1ccc(O)cc1)NC(=O)[C@@H](NC(=O)[C@H](CO)NC(=O)[C@H](CCC(=O)O)NC(=O)[C@H](C)N)[C@@H](C)O)C(=O)N[C@@H](Cc1ccc(O)cc1)C(=O)N[C@H](C(=O)N[C@@H](CC(C)C)C(=O)N[C@@H](CC(N)=O)C(N)=O)[C@@H](C)O
For the molecule B11, in assay [1], the “% Inhibition at 5 uM” value came out at 91%.

B12: Analog 61 (peptide)
peptide: AESTYHHLSLGYMYTL[dN]-NH2
modifications: N-terminus assumed
SMILES: CSCC[C@H](NC(=O)[C@H](Cc1ccc(O)cc1)NC(=O)CNC(=O)[C@H](CC(C)C)NC(=O)[C@H](CO)NC(=O)[C@H](CC(C)C)NC(=O)[C@H](Cc1c[nH]cn1)NC(=O)[C@H](Cc1c[nH]cn1)NC(=O)[C@H](Cc1ccc(O)cc1)NC(=O)[C@@H](NC(=O)[C@H](CO)NC(=O)[C@H](CCC(=O)O)NC(=O)[C@H](C)N)[C@@H](C)O)C(=O)N[C@@H](Cc1ccc(O)cc1)C(=O)N[C@H](C(=O)N[C@@H](CC(C)C)C(=O)N[C@H](CC(N)=O)C(N)=O)[C@@H](C)O
Regarding B12, in assay [1], the “% Inhibition at 2.5 uM” value stood at 32% and the “% Inhibition at 5 uM” value came to 55%.

B13: Peptide 25 (synthetic peptide of clone 25) (peptide)
peptide: AESTYHHLSLGYMYTLN-NH2
notes: also called clone 25 peptide; analogs 3 and 4
On to B13, for which, in assay [1], the “% Inhibition at 2.5 uM” value worked out at 45% and the “% Inhibition at 5 uM” value came out at 59%.

B14: Analog 34 (peptide)
peptide: AESTFHHLSLGYMYTLN-NH2
Take B14: in assay [1], the “% Inhibition at 2.5 uM” value amounted to 38% and the “% Inhibition at 5 uM” value came out at 47%.

B15: Analog 43 (peptide)
peptide: AESTYHHLSLGYVYTLN-NH2
For B15, in assay [1], the “% Inhibition at 2.5 uM” value was 63% and the “% Inhibition at 5 uM” value came to 82%.

B16: Analog 47 (peptide)
peptide: A[dE]STYHHLSLGYMYTLN-NH2
modifications: N-terminus assumed
SMILES: CSCC[C@H](NC(=O)[C@H](Cc1ccc(O)cc1)NC(=O)CNC(=O)[C@H](CC(C)C)NC(=O)[C@H](CO)NC(=O)[C@H](CC(C)C)NC(=O)[C@H](Cc1c[nH]cn1)NC(=O)[C@H](Cc1c[nH]cn1)NC(=O)[C@H](Cc1ccc(O)cc1)NC(=O)[C@@H](NC(=O)[C@H](CO)NC(=O)[C@@H](CCC(=O)O)NC(=O)[C@H](C)N)[C@@H](C)O)C(=O)N[C@@H](Cc1ccc(O)cc1)C(=O)N[C@H](C(=O)N[C@@H](CC(C)C)C(=O)N[C@@H](CC(N)=O)C(N)=O)[C@@H](C)O
With B16, in assay [1], the “% Inhibition at 2.5 uM” value came to 35% and the “% Inhibition at 5 uM” value was 61%.
